This experiment has as its target HA-GST-LC3B (UniProt Q9GZQ8 1-120). Nature of the experiment: pull-down.

The record followed here is PMC6020066 (Science (New York, N.Y.), 2018).

B1: purified FLAG-NUFIP1-HA-ZNHIT3 complex (complex)
chain 1: not shown
chain 2: MASLKCSTVVCVICLEKPKYRCPACRVPYCSVVCFRKHKEQCNPETRPVEKKIRSALPTKTVKPVENKDDDDSIADFLNSDEEEDRVSLQNLKNLGESATLRSLLLNPHLRQLMVNLDQGEDKAKLMRAYMQEPLFVEFADCCLGIVEPSQNEES
B1: the binding result is listed as “binds”.
